In paper PMC7835222, “PRMT3 interacts with ALDH1A1 and regulates gene-expression by inhibiting retinoic acid signaling” (Communications Biology, 2021):

Target: T1, GST-tagged PRMT3 full-length protein (pGEX-PR-FL) (human, UniProt O60678-1 1-531)
T1 construct: Protein arginine methyltransferase 3 (PRMT3), human, full length; pGEX-6P2 vector; the legends mark a degraded GST-PRMT3 band beside the full-length one; also called GST-PRMT3; GST-PRMT3-FL
Assay: pull-down; 15 µg GST-PRMT3 (wild type or mutant) on Glutathione Sepharose, 15 µg His-tagged AL-FL in solution, with or without 200 µM SAM or SAH; 20 mM HEPES pH 7.5, 150 mM KCl, 0.2 mM DTT, 1 mM EDTA, 10% glycerol; 4 °C, 10 h; blot with His antibody
Details: both partners purified

T1 sequence (O60678 whole entry): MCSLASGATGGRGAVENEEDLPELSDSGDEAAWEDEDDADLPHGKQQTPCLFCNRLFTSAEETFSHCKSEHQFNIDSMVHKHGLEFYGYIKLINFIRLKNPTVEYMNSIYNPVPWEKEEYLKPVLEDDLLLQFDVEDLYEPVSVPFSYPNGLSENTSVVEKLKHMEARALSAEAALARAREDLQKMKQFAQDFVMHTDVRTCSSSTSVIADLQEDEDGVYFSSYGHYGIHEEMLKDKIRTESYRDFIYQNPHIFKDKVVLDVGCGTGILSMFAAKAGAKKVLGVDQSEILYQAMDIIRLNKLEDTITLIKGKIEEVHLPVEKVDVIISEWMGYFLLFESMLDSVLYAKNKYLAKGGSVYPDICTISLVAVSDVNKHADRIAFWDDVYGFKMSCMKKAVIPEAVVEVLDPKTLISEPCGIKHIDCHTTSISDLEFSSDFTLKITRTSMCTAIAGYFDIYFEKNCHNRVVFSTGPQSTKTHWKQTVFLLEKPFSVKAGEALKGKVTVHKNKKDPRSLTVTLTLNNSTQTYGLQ

binding result: binds
B1: His-tagged ALDH1A1 full length (pET28a-AL-FL) (enzyme, human, UniProt P00352 1-501, looked up)
chain: MSSSGTPDLPVLLTDLKIQYTKIFINNEWHDSVSGKKFPVFNPATEEELCQVEEGDKEDVDKAVKAARQAFQIGSPWRTMDASERGRLLYKLADLIERDRLLLATMESMNGGKLYSNAYLNDLAGCIKTLRYCAGWADKIQGRTIPIDGNFFTYTRHEPIGVCGQIIPWNFPLVMLIWKIGPALSCGNTVVVKPAEQTPLTALHVASLIKEAGFPPGVVNIVPGYGPTAGAAISSHMDIDKVAFTGSTEVGKLIKEAAGKSNLKRVTLELGGKSPCIVLADADLDNAVEFAHHGVFYHQGQCCIAASRIFVEESIYDEFVRRSVERAKKYILGNPLTPGVTQGPQIDKEQYDKILDLIESGKKEGAKLECGGGPWGNKGYFVQPTVFSNVTDEMRIAKEEIFGPVQQIMKFKSLDDVIKRANNTFYGLSAGVFTKDIDKAITISSALQAGTVWVNCYGVVSAQCPFGGFKMSGNGRELGEYGFHEYTEVKTVTVKISQKNS
notes: Retinal dehydrogenase 1 (ALDH1A1), human, full length; pET28a vector; also called His-tagged AL-FL
